Data taken from paper PMC9333989.

B1: mouse CD4, wild type [mouse] / Lck (Src kinase) [mouse (endogenous in 58α−β− T cell hybridoma)] (parent)
chain 1: KTLVLGKEGESAELPCESSQKKITVFTWKFSDQRKILGQHGKGVLIRGGSPSQFDRFDSKKGAWEKGSFPLIINKLKMEDSQTYICELENRKEEVELWVFKVTFSPGTSLLQGQSLTLTLDSNSKVSNPLTECKHKKGKVVSGSKVLSMSNLRVQDSDFWNCTVTLDQKKNWFGMTLSVLGFQSTAITAYKSEGESAEFSFPLNFAEENGWGELMWKAEKDSFFQPWISFSIKNKEVSVQKSTKDLKLQLKETLPLTLKIPQVSLQFAGSGNLTLTLDKGTLHQEVNLVVMKVAQLNNTLTCEVMGPTSPKMRLTLKQENQEARVSEEQKVVQVVAPETGLWQCLLSEGDKVKMDSRIQVLSRGVNQTVFLACVLGGSFGFLGFLGLCILCCVRCRHQQRQAARMSQIKRLLSEKKTCQCPHRMQKSHNLI
chain 2: MGCVCSSNPEDDWMENIDVCENCHYPIVPLDSKISLPIRNGSEVRDPLVTYEGSLPPASPLQDNLVIALHSYEPSHDGDLGFEKGEQLRILEQSGEWWKAQSLTTGQEGFIPFNFVAKANSLEPEPWFFKNLSRKDAERQLLAPGNTHGSFLIRESESTAGSFSLSVRDFDQNQGEVVKHYKIRNLDNGGFYISPRITFPGLHDLVRHYTNASDGLCTKLSRPCQTQKPQKPWWEDEWEVPRETLKLVERLGAGQFGEVWMGYYNGHTKVAVKSLKQGSMSPDAFLAEANLMKQLQHPRLVRLYAVVTQEPIYIITEYMENGSLVDFLKTPSGIKLNVNKLLDMAAQIAEGMAFIEEQNYIHRDLRAANILVSDTLSCKIADFGLARLIEDNEYTAREGAKFPIKWTAPEAINYGTFTIKSDVWSFGILLTEIVTHGRIPYPGMTNPEVIQNLERGYRMVRPDNCPEELYHLMMLCWKERPEDRPTFDYLRSVLDDFFTATEGQYQPQP

Variants of: B1
Experiment: co-IP of Lck with CD4 from sucrose gradient fractions
Details: with Lck (Src kinase) [mouse (endogenous in 58α−β− T cell hybridoma)], mean ± SEM of three independent experiments, read off a plot
[1] = DRM fractions (center graph), parent: 3.7
[2] = DSM fractions (right graph), parent: 6.9
[3] = DRM fractions (center graph), parent: 2.6
[4] = DSM fractions (right graph), parent: 8.9

Row | response [1] [AUC] | response [2] [AUC] | response [3] [AUC] | response [4] [AUC] | Variant
1 | – | – | 3.2 | – | chain 1 S406A S413A
2 | – | – | 0.87 | 6.3 | chain 1 S406D L411A L412A S413D
3 | – | – | 1.8 | 8.4 | chain 1 S406D S413D

Further lines, the variant ahead of its results:

Row | Variant | response [1] [AUC] | response [2] [AUC] | response [3] [AUC] | response [4] [AUC]
4 | chain 1 G377V G380L C392S C395S C418S C420S | 0.85 | 1.2 | – | –
5 | chain 1 C392S C395S | 2.1 | 8.9 | – | –
6 | chain 1 G377V G380L | 3.5 | 6.4 | – | –
